Consider five molecules from patent US8058046B2, “Sesquiterpene synthases from patchouli” (Firmenich SA, priority 2003, dated 2011).

The nature of data set [1]: Enzyme assay: conversion of FPP to sesquiterpenes by recombinant sesquiterpene synthase, GC / GC-MS analysis. The class given is biochemical. As to conditions: FPP as substrate; for main (major) sesquiterpene product formed: crude protein extract from E. coli expressing the recombinant synthase, GC-MS and retention index. The protocol: In a standard protein expression experiment, the expression plasmids containing the sesquiterpene synthase cDNAs as well as the empty plasmid (for negative control) were transformed into the BL21(DE3) or the BL21 STAR™ (DE3) E. coli cells (Novagen). Single colonies of transformed E. coli were used to inoculate 5 ml LB medium. After 5 to 6 hours of incubation at 37° C., the cultures were transferred to a 20° C. incubator and left 1 hour for equilibration. Expression of the protein was then induced by addition of 0.5 mM IPTG and the culture incubated over-night at 20° C. The next day, the cells were collected by centrifugation, resuspended in 0.5 ml Extraction Buffer (50 mM MOPSO pH 7, 5 mM DTT, 10% glycerol) and sonicated 3 times 30 s. The cell debris were sedimented by centrifugation 30 min at 18,000 g and the supernatant containing the soluble proteins was recovered. The expression of the sesquiterpene synthases was evaluated by separation of the protein extract on a SDS-PAGE, staining with coomassie blue and comparison to protein extract obtained from cells transformed with the empty plasmid.
The enzymatic assays were performed in Teflon sealed glass tubes using 50 to 100 μl of protein extract in a final volume of 1 mL Extraction Buffer supplemented with 15 mM MgCl2 and 100 to 250 μM FPP (Sigma). The medium was overlaid with 1 ml pentane and the tubes incubated over-night at 30° C. The pentane phase, containing the sesquiterpenes, was recovered and the medium extract with a second volume of pentane. The combined pentane fractions were concentrated under nitrogen and analyzed by Gas Chromatography on a on a Hewlett-Packard 6890 Series GC system using a 0.25 mm inner diameter by 30 m SPB-1 (Supelco) capillary column. The carrier gas was He at constant flow of 1.6 ml/min. Injection was done in splitless mode with the injector set at 200° C. and the oven programmed from 100° C. (0 min hold) at 7.5° C./min to 200° C. (0 min hold) followed by 20° C./min to 280° C. (2 min hold). Detection was made with a flame ionization detector. Compound identification was based on retention time identity with authentic standards when available. For confirmation of the products identities, samples were analyzed by combined capillary GC-MS using a Hewlett-Packard 6890 GC-quadrupole mass selective detector system, equipped with a 0.25 mm inner diameter by 30 m SPB-1 (Supelco) capillary column. The oven was programmed from 80° C. (0 min hold) to 280° C. at 7° C. at a constant flow of 1.5 ml/min He. The spectra were recorded at 70 eV with an electron multiplier voltage of 2200V. Retention time of the enzyme products were compared to the retention time of authentic standard, or the Kovats retention index was calculated and compared to published data (Joulain, D., and König, W. A. The Atlas of Spectral Data of Sesquiterpene Hydrocarbons, EB Verlag, Hamburg, 1998).
For the biochemical characterization of the sesquiterpene synthases for which the full-length cDNA was isolated, the cDNA was ligated into appropriate expression plasmids. This plasmid were used to transform E coli cells and after expression of the recombinant proteins, the E coli proteins were extracted and used to evaluate the biochemical conversion of FPP to sesquiterpene compounds (see Examples 5 and 6).

The subject of another data set is BL21 (DE3) E. coli cells. The experiment in a line: In vivo sesquiterpene production assay in E. coli from the endogenous FPP pool. The class given is cell-based. As to conditions: E. coli cells expressing the synthase, 24 hours after 1 mM IPTG, pentane extract, GC / GC-MS; none with empty plasmid. The method, then:
Experiments were performed using E. coli, to test the ability of the patchoulol synthase to synthesise, in vivo, sesquiterpenes from the endogenous FPP pool. Typical experiments for evaluation of in vivo sesquiterpene production are performed as follows. The expression plasmid containing the sesquiterpene synthase cDNA are transformed in BL21 (DE3) E. coli cells. Single colonies of transformed cells are used to inoculate 5 mL LB medium supplemented with the appropriate antibiotics. After 5 to 6 hours of incubation at 37° C., the culture were use to inoculate 100 ml TB medium supplemented with the appropriate antibiotics and the culture was incubated for 2 hours at 20° C. in a 250 mL shake flask. After 2 hours incubation, expression of the protein was induced by the addition of 1 mM IPTG. The cultures were left 24 hours and were then directly extracted twice with one volume of pentane. The two solvent fractions were recovered, combined and concentrated to 0.5 mL prior to GC-MS analysis. […] Patchoulol could be clearly detected by GC analysis of the culture extract, and no patchoulol was detected with cells transformed with the empty plasmid. The identity of the product could be confirmed by GC-MS, but the amount of sesquiterpene produced was relatively low and estimation of the quantities was not possible.

The mark [2] stands for this setting: estimated by GC (flame ionization detection).

B1: PatTps177: recombinant patchoulol synthase from patchouli, cDNA SEQ ID NO:5 (protein)
chain: MELYAQSVGVGAASRPLANFHPCVWGDKFIVYNPQSCQAGEREEAEELKVELKRELKEASDNYMRQLKMVDAIQRLGIDYLFVEDVDEALKNLFEMFDAFCKNNHDMHATALSFRLLRQHGYRVSCEVFEKFKDGKDGFKVPNEDGAVAVLEFFEATHLRVHGEDVLDNAFDFTRNYLESVYATLNDPTAKQVHNALNEFSFRRGLPRVEARKYISIYEQYASHHKGLLKLAKLDFNLVQALHRRELSEDSRWWKTLQVPTKLSFVRDRLVESYFWASGSYFEPNYSVARMILAKGLAVLSLMDDVYDAYGTFEELQMFTDAIERWDASCLDKLPDYMKIVYKALLDVFEEVDEELIKLGAPYRAYYGKEAMKYAARAYMEEAQWREQKHKPTTKEYMKLATKTCGYITLIILSCLGVEEGIVTKEAFDWVFSRPPFIEATLIIARLVNDITGHEFEKKREHVRTAVECYMEEHKVGKQEVVSEFYNQMESAWKDINEGFLRPVEFPIPLLYLILNSVRTLEVIYKEGDSYTHVGPAMQNIIKQLYLHPVPY
modifications: Pogostemon cablin
For the molecule B1, the “amount of (+)-germacrene A among sesquiterpenes produced” value in data set [1] (estimated by GC (FID), detected as the thermal rearrangement product β-element) is reported as 1.6%. Also, in data set [1] (setting [2]), the “amount of (Z,E)-α-farnesene among sesquiterpenes produced” value was 1.35%, the “amount of (trans)-alpha-farnesene among sesquiterpenes produced” value is listed as 3%, the “amount of (−)-patchoulol among sesquiterpenes produced” value is on record as 39.1% and the “amount of alpha-guaiene among sesquiterpenes produced” value is on record as 14%. For the same molecule, in data set [1] (setting [2]), the “amount of alpha-humulene among sesquiterpenes produced” value was 1.1%, the “amount of seychellene among sesquiterpenes produced” value was 4%, the “amount of trans-β-caryophyllene among sesquiterpenes produced” value is 4.5% and the “amount of trans-β-farnesene among sesquiterpenes produced” value is 3%. Besides, in data set [1] (setting [2]), the “amount of α-bulnesene among sesquiterpenes produced” value was 8.6%, the “amount of α-patchoulene among sesquiterpenes produced” value is recorded as 8.9%, the “amount of γ-patchoulene among sesquiterpenes produced” value is listed as 2.5% and the “amount of δ-patchoulene among sesquiterpenes produced” value is listed as 2.1%. In data set [1], the “main (major) sesquiterpene product formed” value is given as “(−)-patchoulol”. Moreover, in data set [1] (crude protein extract, GC-MS), the “number of other sesquiterpenes produced besides the main product” value was “at least 18”. Also, in the data set with BL21 (DE3) E. coli cells, the “in vivo production of patchoulol from endogenous FPP” value is listed as “produced patchoulol”.

B2: PatTpsBF2: recombinant (−)-germacrene D synthase from patchouli, cDNA SEQ ID NO:2 (protein)
chain: MELKNQSVAIISSNASRPLAHYHPDVWGDRFLLYKPNPSSEAGQKPVIEELKQQVRSELKEASNDYMRQLKMVDAIQRLGIESLFEEDIDNALKNLSENFDDYCKDKHDLYAIALSFRLLRQHGYRISCDVFDKLKDGEDGFKVPPSDEALAVVELLEATHLRIHGEVVLDRAFVFARIHLESIEANLNNPVAKQVHNALYGYSNRRGMQQVEARKYIPIYEQYASHHQGLLKLATLNFNLQQTMHKRELSELSRWYRDLEVPTMLPFARQRLVETYFWDAGVVFEPENDVARMILVKVQCLISFLDDTFDAYGSFEELQLFTDAINTWDVSCLDQLPDYMKIIYKALLGVFEVIEKLMIKQGTLYRLNYAKEAMKIVVGGYFVEAKWREEKSKPTTQEYMQVATKSAGYMTLIITSFLGMEANIATKEAFDWVLSEPDVMKAAITLARLTNDIVGIELEKERKHIATAVEVYEDEHKLSMQEAMVEIKNQIESGWKTINEAFLRPTKFPTPILYRILNYCRVLEVIYDKSDRYTHVDPALQDIIKQLYIHPIP
modifications: Pogostemon cablin
On to B2, for which the “main (major) sesquiterpene product formed” value in data set [1] was “(−)-germacrene D”. Also, the “sesquiterpene synthase activity in recombinant E. coli protein extract” value (“sesquiterpene synthase activity” for short) in data set [1] (crude protein extract) is “could be detected”.

B3: PatTpsB15: another recombinant (−)-germacrene D synthase from patchouli, cDNA SEQ ID NO:4 (protein)
chain: MDLNEITSSSRPLANYHPNVWGDRFLLHEPEFTCQAGEKQLVEELKEEVRRELKEASNDYLRQLKMVDAIQRLGIEYLFEEEIDEALRNLLAKFENYCKDNHDMYATALSFRLLRQHGYKVSCEVFDKFKDGEDGFKVEEVMAVLELFEATHMRIHGEDVLDQAFVFTRNYLQSIHATLSNPIAKQVHNALNGYSCRRGMPRIEARKYIPIYEEYGCHHKALLKLAKLDFNLLQSMHKRELTQLYRWWKDLEMPTKLPYIRDRLVETYFWDMGFYFEPQYALARNILVKVQCLVSIFDDTFDAYGAFKELQLFKDAIDRWSISCLDELPEYMQIIYKLVLDVFEEIESHMIKQGTSYRLDYAREAIKIVIGGYFDEAKWREEEYKPRMEEYMKVATKSAAYLTLIIVSFVGMKNDIATPQAFQWVLSEPQIITASLALARLSNDLVGIEFEKERKYIATAVELYEEEHKVSKEEAVLELRHETESAWKEINEALLEPTTFATPILDRILNSARVLEVFYDKTDRYTHVDLELQNIIAQLYIHPIP
modifications: Pogostemon cablin
As to B3, the “main (major) sesquiterpene product formed” value in data set [1] was “(−)-germacrene D”. Further, in data set [1] (crude protein extract), the “sesquiterpene synthase activity” value was “relatively good metabolization of FFP”.

B4: PatTpsCF2: recombinant (+)-germacrene A synthase from patchouli, cDNA SEQ ID NO:3 (protein)
chain: MAVQISETVRPFANFSPNPSLWGDQFINHKSKTQQISRIYLEEIEGLKNEVKCMLTSTPEGKMADTVNLIDTLERLGVSYHFEKEIEEKMKHLFNLIKADNYKDHEGCDLYTDALHFRLFRQHGYPISSGIFNKWMDGNGKFKESIKSDAKGLLSLYEACCLRTHGDTLLDEALVFATASLKSMAANLASPLRKQVEHALFQHLHFGIPRVEARHFITFYEEEEHKNEMLLRFAKLDFNALQALHKEELSEISKWWKDLDLISKLPYARDRVVESYFWAVGVYYQPKYSRARIMLTKTIAMTAILDDTYDSYGTLEELDVLTKAIERWDIKEINGLPEYIKGFYKQVLKLYQQLEEELAKEGRSYAVYYAIEACKELARSYAVEAKWFKKGYLPGFEEYLINSLVTSTAGYLNIISFFGVESVTKEDFEWFSKKPRIAVATQIITRVIDDIATYEVEKEKGQSATGIDCYMKEHGVSKEKAMQRFYEMSTNAWKDINEEGLSWPSSFSRDIFVQLRNFSRMVDVTYGKNEDGYSKPEKILKPLIIALFVDQIKL
modifications: Pogostemon cablin
Consider B4, for which the “main (major) sesquiterpene product formed” value in data set [1] is “(+)-germacrene A”. Also, the “sesquiterpene synthase activity” value in data set [1] (crude protein extract) is “easily detected”.

B5: PatTpsA: recombinant γ-curcumene synthase from patchouli (Pogostemon cablin), cDNA SEQ ID NO:1 (protein)
chain: MAAFTANAVDMRPPVITIHPRSKDIFSQFSLDDKLQKQYAQGIEALKEEARSMLMAAKSAKVMILIDTLERLGLGYHFEKEIEEKLEAIYKKEDGDDYDLFTTALRFRLLRQHQRRVPCSVFDKFMNKEGKFEEEPLISDVEGLLSLYDAAYLQIHGEHILQEALIFTTHHLTRIEPQLDDHSPLKLKLNRALEFPFYREIPIIYAHFYISVYERDDSRDEVLLKMAKLSYNFLQNLYKKELSQLSRWWNKLELIPNLPYIRDSVAGAYLWAVALYFEPQYSDVRMAIAKLIQIAAAVDDTYDNYATIREAQLLTEALERLNVHEIDTLPDYMKIVYRFVMSWSEDFERDATIKEQMLATPYFKAEMKKLGRAYNQELKWVMERQLPSFEEYMKNSEITSGVYIMFTVISPYLNSATQKNIDWLLSQPRLASSTAIVMRCCNDLGSNQRESKGGEVMTSLDCYMKQHGASKQETISKFKLIIEDEWKNLNEEWAATTCLPKVMVEIFRNYARIAGFCYKNNGDAYTSPKIVQQCFDALFVNPLRI
modifications: Pogostemon cablin
As to B5, in data set [1], the “main (major) sesquiterpene product formed” value is given as “γ-curcumene”. The “sesquiterpene synthase activity” value in data set [1] (crude protein extract) is “low”.
